# According to patent US20160297891A1 (Zymeworks, published 2016):
# How the values were obtained:
# [1] = molecular target: T1, HER2 extracellular domain (soluble analyte in SPR) (human); test: SPR, the reference itself
# [2] = molecular target: T1, HER2 extracellular domain (soluble …); test: SPR, standard deviation of KD
# [3] = molecular target: T1, HER2 extracellular domain (soluble …); test: SPR (Biacore T200), variant captured on anti-human Fc, Her2 injected, single cycle kinetics, 25 C
binder,measurement,setting,value
"v4182, monovalent (one-armed) anti-HER2 antibody with a Fab derived from pertuzumab on chain A (antibody, IgG1, also called OA-pert) heavy: EVQLVESGGGLVQPGGSLRLSCAASGFTFTDYTMDWVRQAPGKGLEWVADVNPNSGGSIYNQRFKGRFTLSVDRSKNTLYLQMNSLRAEDTAVYYCARNLGPSFYFDYWGQGTLVTVSSASTKGPSVFPLAPSSKSTSGGTAALGCLVKDYFPEPVTVSWNSGALTSGVHTFPAVLQSSGLYSLSSVVTVPSSSLGTQTYICNVNHKPSNTKVDKKVEPKSCDKTHTCPPCPAPELLGGPSVFLFPPKPKDTLMISRTPEVTCVVVDVSHEDPEVKFNWYVDGVEVHNAKTKPREEQYNSTYRVVSVLTVLHQDWLNGKEYKCKVSNKALPAPIEKTISKAKGQPREPQVYVYPPSRDELTKNQVSLTCLVKGFYPSDIAVEWESNGQPENNYKTTPPVLDSDGSFALVSKLTVDKSRWQQGNVFSCSVMHEALHNHYTQKSLSLSPG not shown light: not shown",KD_wt/KD_var,[1],1 fold
same,STEDEV KD,[2],4.2 nM
same,Kd,[3],14.9 nM
